Measurements taken from US20180356429A1.

Key:
[1] = target: Recombinant human IL-13 (R&D Systems, MN, catalog no. 213-ILB/CF) (human) (UniProt P35225); assay: sandwich pair screen, 100 pg/mL recombinant IL-13, binder is detection Ab; capture Ab 32116
[2] = target: Recombinant human IL-13 (R&D Systems, MN, catalog no. 213-ILB/CF) (human) (UniProt P35225); assay: sandwich pair screen, negative (blank) signal, binder is detection Ab; capture Ab 14C9
[3] = target: Recombinant human IL-13 (R&D Systems, MN, catalog no. 213-ILB/CF) (human) (UniProt P35225); assay: sandwich pair screen, 100 pg/mL recombinant IL-13, binder is detection Ab; capture Ab 14C9
[4] = target: Recombinant human IL-13 (R&D Systems, MN, catalog no. 213-ILB/CF) (human) (UniProt P35225); assay: sandwich pair screen, 100 pg/mL recombinant IL-13, binder is detection Ab; capture Ab 4D7
[5] = target: Recombinant human IL-13 (R&D Systems, MN, catalog no. 213-ILB/CF) (human) (UniProt P35225); assay: sandwich pair screen, 100 pg/mL recombinant IL-13, binder is detection Ab; capture Ab 11H4
[6] = target: Recombinant human IL-13 (R&D Systems, MN, catalog no. 213-ILB/CF) (human) (UniProt P35225); assay: sandwich pair screen, 100 pg/mL recombinant IL-13, binder is detection Ab; capture Ab MILR1444A
[7] = target: Recombinant human IL-13 (R&D Systems, MN, catalog no. 213-ILB/CF) (human) (UniProt P35225); assay: sandwich pair screen, negative (blank) signal, binder is detection Ab; capture Ab 228B/C
[8] = target: Recombinant human IL-13 (R&D Systems, MN, catalog no. 213-ILB/CF) (human) (UniProt P35225); assay: sandwich pair screen, 100 pg/mL recombinant IL-13, binder is detection Ab; capture Ab 228B/C
[9] = target: Recombinant human IL-13 (R&D Systems, MN, catalog no. 213-ILB/CF) (human) (UniProt P35225); assay: sandwich pair screen, 100 pg/mL recombinant IL-13, binder is detection Ab; capture Ab 8C11
[10] = target: Recombinant human IL-13 (R&D Systems, MN, catalog no. 213-ILB/CF) (human) (UniProt P35225); assay: sandwich pair screen, negative (blank) signal, binder is detection Ab; capture Ab 32116
[11] = target: Recombinant human IL-13 (R&D Systems, MN, catalog no. 213-ILB/CF) (human) (UniProt P35225); assay: sandwich pair screen, negative (blank) signal, binder is detection Ab; capture Ab 4D7
[12] = target: Recombinant human IL-13 (R&D Systems, MN, catalog no. 213-ILB/CF) (human) (UniProt P35225); assay: sandwich pair screen, negative (blank) signal, binder is detection Ab; capture Ab 8C11
[13] = target: Recombinant human IL-13 (R&D Systems, MN, catalog no. 213-ILB/CF) (human) (UniProt P35225); assay: sandwich pair screen, negative (blank) signal, binder is detection Ab; capture Ab 11H4
[14] = target: Recombinant human IL-13 (R&D Systems, MN, catalog no. 213-ILB/CF) (human) (UniProt P35225); assay: sandwich pair screen, negative (blank) signal, binder is detection Ab; capture Ab MILR1444A

Recombinant human IL-13 (R&D Systems, MN, catalog no. 213-ILB/CF) (human), sequence (P35225 other isoform, or with tags, fused parts or gaps): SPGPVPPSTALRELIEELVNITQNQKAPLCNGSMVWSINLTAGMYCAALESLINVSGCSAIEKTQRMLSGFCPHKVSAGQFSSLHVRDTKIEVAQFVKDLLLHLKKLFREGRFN

- Assay Signal Pos [1]: 126
- Assay Signal Neg (blank) [2]: 29
- Assay Signal Pos [3]: 70.3
- Assay Signal Pos [4]: 29.9
- Assay Signal Pos [5]: 9540
- Assay Signal Pos [6]: 6
- Assay Signal Neg (blank) [7]: 26.6
- Assay Signal Pos [8]: 27.7
- Assay Signal Pos [9]: 25.4
- Assay Signal Neg (blank) [10]: 15.2
- Assay Signal Neg (blank) [11]: 24.7
- Assay Signal Neg (blank) [12]: 3.9
- Assay Signal Neg (blank) [13]: 22.4
- Assay Signal Neg (blank) [14]: 5.4
B1: 228B/C (antibody, from a related filing, V domains shown)
VH: QVQLQESGPGLVAPSQSLSITCTVSGFSLNAYSVNWVRQPPGKGLEWLGMIWGDGKIVYNSALKSRLNISKDSSKSQVFLKMSSLQSDDTARYYCAGDGYYPYAMDNWGHGTSVTVSS
VL: NIVLTQSPASLAVSLGQRATISCRASKSVDSYGNSFMHWYQQKPGQPPKLLIYLASNLESGVPARFSGSGSRTDFTLTIDPVEADDAASYYCQQNNEDPRTFGGGTKLEIK
